Measurements reported in patent publication US20140249073A1.

Tests used:
[1] = target: T1, fluorogenic peptide substrate decanoyl-LSSPAY(NO2)A-ADK(abz)PD
T1 chain: LSSPAYAADKPD

[2] = target: T2, fluorogenic peptide substrate decanoyl-LTPTAY(NO2)A-ASK(abz)DD
T2 chain: LTPTAYAASKDD

B1: Full length His-tagged S. aureus SPase (protein)
chain: MKKELLEWIISIAVAFVILFIVGKFIVTSYTIKGESMDPTLKDGERVAVNIIGYKTGGLEKGNVVVFHANKNDDYVKRVIGVPGDKVEYKNDTLYVNGKKQDEPYLNYNLKHKQGDYITGTFQVKDLPNANPKSNVIPKGKYLVLGDNREVSKDSRAFGLIDEDQIVGKVSFRFWPFSEFKHNFNPENTKN
second order rate constant (Kcat/Km) of substrate cleavage [1]: 10^5 M^-1 s^-1 | second order rate constant (Kcat/Km) of substrate cleavage [2]: 10^5 M^-1 s^-1
